In patent publication US7122382 (RIKEN, dated 2006):
Where two headings read alike, the source gives them in different places.

T1: Bpx protein (nucleosome assembly protein homologue) (2-1H) (mouse, UniProt P51860 1-460, limits assumed, 35S-methionine label or biotinylated lysine, by its role in the assay)
T1 construct: also called NAP 1-like protein L2
T1 sequence (looked up): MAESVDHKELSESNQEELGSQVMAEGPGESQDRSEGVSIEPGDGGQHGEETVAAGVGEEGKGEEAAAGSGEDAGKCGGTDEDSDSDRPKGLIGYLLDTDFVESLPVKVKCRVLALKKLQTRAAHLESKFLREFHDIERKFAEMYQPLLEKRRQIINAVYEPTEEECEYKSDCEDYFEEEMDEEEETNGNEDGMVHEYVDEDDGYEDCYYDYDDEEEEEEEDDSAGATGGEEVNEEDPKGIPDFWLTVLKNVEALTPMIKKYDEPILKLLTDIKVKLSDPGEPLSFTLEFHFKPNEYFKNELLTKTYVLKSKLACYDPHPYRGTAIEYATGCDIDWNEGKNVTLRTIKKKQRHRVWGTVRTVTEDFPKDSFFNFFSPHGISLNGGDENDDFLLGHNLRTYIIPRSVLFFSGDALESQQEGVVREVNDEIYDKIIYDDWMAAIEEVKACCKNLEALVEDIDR

B1: Caspase 6 (1-9E) (enzyme, mouse, UniProt O08738 1-276, looked up)
chain: MTETDGFYKSREVFDPAEQYKMDHKRRGVALIFNHERFFWHLTLPERRGTNADRDNLTRRFSDLGFEVKCFNDLRAEELLLKIHEVSTSSHIDADCFICVFLSHGEGNHVYAYDAKIEIQTLTGLFKGDKCQSLVGKPKIFIIQACRGSQHDVPVVPLDMVDHQTDKLDNVTQVDAASVYTLPAGADFLMCYSVAEGYYSHRETVNGSWYIQDLCEMLARYGSSLEFTELLTLVNRKVSQRRVDFCKDPDAIGKKQVPCFASMLTKKLHFCPKPSK
modifications: 35S-methionine label or biotinylated lysine, by its role in the assay
B2: MB20 protein (function unknown, 2-10F) (other, mouse, UniProt Q794H2 1-544, looked up)
chain: MAEADPKMVTEPGAHGVAEEAMASTACDSGDESDSNSSSSTNSCSSSGSSSSGSSSSSSSSSSSSSSSSSSSSGSSGSSSNGSHLNRKKRVPEPSRRAQRRPSGKLFLDKLPQAVRNRVQALRNIQNECDKVDTLFLRAIHDLERKYAELNKPLYDKRFQIINAEYEPTEEECEWNSEEEFSGDEEMQDDTPNEMPPLEGEEEEESCNEKAEVKEEGTHVPEEVPEAKVEEEEAPKETPEVKTEEKDIPKEGAEEKAEEQESSKEIPEVKGEEKADSTDCIDIAPEEKEDVKEVTQANTENKDQPTEEFTPRAPAREAQKRVPETRPEEGVNIKRARKGKPKKEDPKGIPDYWLTVLKNVDKLGPMIQKCDEPILKFLSDVSLKFSNPGQPIGYTFEFHFLPNPYFRNELLMKTYIIRSKPDHYDPFFAWGWEIEECKGCKIDWRRGKDVTVTTTRSRPGITGEIEVQPRVVPNASFFNFFSPPEIPLIGKLEPREDAILDEDFEIGQILHDNVILKSIYYFTGEINDPYYHDFRDYGNRKYYK
modifications: 35S-methionine label or biotinylated lysine, by its role in the assay
notes: also called NAP1-like protein L3
B3: Fos (other, UniProt P01101 1-380, looked up)
chain: MMFSGFNADYEASSSRCSSASPAGDSLSYYHSPADSFSSMGSPVNTQDFCADLSVSSANFIPTVTAISTSPDLQWLVQPTLVSSVAPSQTRAPHPYGLPTQSAGAYARAGMVKTVSGGRAQSIGRRGKVEQLSPEEEEKRRIRRERNKMAAAKCRNRRRELTDTLQAETDQLEDEKSALQTEIANLLKEKEKLEFILAAHRPACKIPDDLGFPEEMSVASLDLTGGLPEASTPESEEAFTLPLLNDPEPKPSLEPVKSISNVELKAEPFDDFLFPASSRPSGSETSRSVPDVDLSGSFYAADWEPLHSNSLGMGPMVTELEPLCTPVVTCTPGCTTYTSSFVFTYPEADSFPSCAAAHRKGSSSNEPSSDSLSSPTLLAL
modifications: 35S-methionine label or biotinylated lysine, by its role in the assay
notes: Crude translation mix, not purified
B4: p53 (other, UniProt P02340 1-390, looked up)
chain: MTAMEESQSDISLELPLSQETFSGLWKLLPPEDILPSPHCMDDLLLPQDVEEFFEGPSEALRVSGAPAAQDPVTETPGPVAPAPATPWPLSSFVPSQKTYQGNYGFHLGFLQSGTAKSVMCTYSPPLNKLFCQLAKTCPVQLWVSATPPAGSRVRAMAIYKKSQHMTEVVRRCPHHERCSDGDGLAPPQHLIRVEGNLYPEYLEDRQTFRHSVVVPYEPPEAGSEYTTIHYKYMCNSSCMGGMNRRPILTIITLEDSSGNLLGRDSFEVRVCACPGRDRRTEEENFRKKEVLCPELPPGSAKRALPTCTSASPPQKKKPLDGEYFTLKIRGRKRFEMFRELNEALELKDAHATEESGDSRAHSSYLKTKKGQSTSRHKKTMVKKVGPDSD
modifications: 35S-methionine label or biotinylated lysine, by its role in the assay
B5: Jun (other, UniProt P05627 1-334, looked up)
chain: MTAKMETTFYDDALNASFLQSESGAYGYSNPKILKQSMTLNLADPVGSLKPHLRAKNSDLLTSPDVGLLKLASPELERLIIQSSNGHITTTPTPTQFLCPKNVTDEQEGFAEGFVRALAELHSQNTLPSVTSAAQPVSGAGMVAPAVASVAGAGGGGGYSASLHSEPPVYANLSNFNPGALSSGGGAPSYGAAGLAFPSQPQQQQQPPQPPHHLPQQIPVQHPRLQALKEEPQTVPEMPGETPPLSPIDMESQERIKAERKRMRNRIAASKCRKRKLERIARLEEKVKTLKAQNSELASTANMLREQVAQLKQKVMNHVNSGCQLMLTQQLQTF
modifications: 35S-methionine label or biotinylated lysine, by its role in the assay

Columns and labels:
1-9F = 1-9F (mouse); assay: single proteins, rows taken as 35S-labelled and columns as biotinylated, streptavidin beads
1-9G = 1-9G (mouse); assay: as above
1-9H = 1-9H (mouse); assay: as above
[1] = molecular target: the molecule itself; assay: as above
[2] = molecular target: DnaJ-like protein (Hsj2) (2-10E) (mouse, UniProt P63037 1-397, 35S-methionine label or biotinylated lysine, by its role in the assay); assay: as above
2-10G = 2-10G (mouse); assay: as above
2-10H = 2-10H (mouse); assay: as above
[3] = molecular target: the molecule itself; assay: as above; remark: listed apart in the source
2-1E = 2-1E (mouse); assay: as above
2-1G = 2-1G (mouse); assay: as above
2-1F = 2-1F (mouse); assay: as above
[4] = molecular target: T1, Bpx protein (nucleosome assembly …); assay: as above
luciferase = luciferase (UniProt P08659 1-550 = luciferase, 35S-methionine label or biotinylated lysine, by its role in the assay); assay: biotinylated row protein on streptavidin beads, 35S column protein counted
Protocol: (§1) That is, 2.5 μL of each reaction solution was mixed and placed on ice for 60 min. A 15 μL quantity of streptoavidin (Dynabeads) diluted with TBST-1 percent skim milk was added, and the mixture was stirred for 30 min at 4° C. Magnetic force was employed to recover the beads, thorough washing was conducted with TBST, and then the RI of the beads was measured.

SV40 large T = SV40 large T (SV40, UniProt P03070 1-708); assay: as above
Protocol: as §1

Jun = molecular target: B5; assay: as above
Protocol: as §1

[5] = molecular target: the molecule itself; assay: as above
Protocol: as §1

p53 = molecular target: B4; assay: as above
Protocol: as §1

Fos = molecular target: B3; assay: as above
Protocol: as §1

Sequence of luciferase (P08659 whole entry): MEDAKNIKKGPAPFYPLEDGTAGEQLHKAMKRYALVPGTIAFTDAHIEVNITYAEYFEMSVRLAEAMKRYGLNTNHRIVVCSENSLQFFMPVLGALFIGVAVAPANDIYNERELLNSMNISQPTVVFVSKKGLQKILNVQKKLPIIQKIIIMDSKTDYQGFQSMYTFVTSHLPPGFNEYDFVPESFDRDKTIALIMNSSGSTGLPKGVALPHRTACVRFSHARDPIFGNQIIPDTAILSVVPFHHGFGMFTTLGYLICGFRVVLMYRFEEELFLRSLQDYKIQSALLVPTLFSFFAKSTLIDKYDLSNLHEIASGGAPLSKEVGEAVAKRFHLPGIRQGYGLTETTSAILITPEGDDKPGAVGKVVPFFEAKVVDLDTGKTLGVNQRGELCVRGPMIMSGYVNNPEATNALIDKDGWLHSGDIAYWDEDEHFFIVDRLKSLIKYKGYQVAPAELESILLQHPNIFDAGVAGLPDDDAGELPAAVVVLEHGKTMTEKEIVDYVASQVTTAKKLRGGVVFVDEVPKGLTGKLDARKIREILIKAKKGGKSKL

| Binder | RI (c.p.m.) (luciferase) | RI (c.p.m.) (SV40 large T) | RI (c.p.m.) (Jun) | RI (c.p.m.) [5] [c.p.m.] | RI (c.p.m.) (p53) | RI (c.p.m.) (Fos) | also measured |
| --- | --- | --- | --- | --- | --- | --- | --- |
| B1 |  |  |  |  |  |  | RI (cpm) (1-9F): 32 cpm; RI (cpm) (1-9G): 36 cpm; RI (cpm) (1-9H): 37 cpm; RI (cpm) [1]: 225 cpm |
| B2 |  |  |  |  |  |  | RI (cpm) [2]: 87 cpm; RI (cpm) (2-10G): 67 cpm; RI (cpm) (2-10H): 98 cpm; RI (cpm) [3]: 168 cpm; RI (cpm) (2-1E): 60 cpm; RI (cpm) (2-1G): 72 cpm; RI (cpm) (2-1F): 60 cpm; RI (cpm) [4]: 736 cpm |
| B3 | 172 | 156 | 675 | 177 | 169 |  |  |
| B4 | 154 |  | 206 |  |  | 232 |  |
| B5 | 131 | 176 |  | 204 | 187 | 707 |  |
